For the experiment, the target named is T1, HEWL (lysozyme, derived from egg albumen, FUJIFILM Wako Pure Chemical Corporation) (UniProt P00698 19-147).
T1 construct: Immobilised on a CM5 sensor chip by amine coupling (target 150 RU); Species is only implied by 'derived from egg albumen' and the abbreviation HEWL; also called antigen
Put plainly: SPR (Biacore T200), HEWL amine-coupled to CM5 chip, 1ZVH at 8.6-700 nM as analyte, 1:1 binding model. The procedure: The antigen-binding activity of the 1ZVH (SEQ ID NO: 38) produced by Dpr9ΔsigF was analyzed by intermolecular interaction measurement using Biacore T200 (GE Healthcare). The sensor chip used was Series S Sensor Chip CM5, and the running buffer used was HBS-EP+. HEWL (lysozyme, derived from egg albumen, FUJIFILM Wako Pure Chemical Corporation) was adjusted to 0.7 g/L with 25 mM Na phosphate pH 6.5 buffer to prepare an antigen solution. The antigen solution diluted 100-fold with an acetic acid aqueous solution (pH 4.0, 4.5, 5.0, or 5.5) to 7 μg/mL was used as substrates. As samples, 1ZVH diluted with the running buffer to 8.6 nM, 26 nM, 78 nM, 230 nM, or 700 nM was used. The following items were set or performed on the control software attached to Biacore T200 using the substrates and the samples, and the binding between the HEWL and the 1ZVH was monitored. Immobilisation pH scouting was performed to investigate the optimum pH for ill- mobilization to a sensor chip. The optimum pH condition was judged to be pH 5.5. The target was set to 150 RU with Aim for immobilized level, and lysozyme was immobilized to Flow path 2 by an amine coupling method. In Flow path 1, Blank Immobilization was performed. The binding between a substrate and a sample was monitored in Flow path 2-1. […] The kinetics were analyzed using the resulting sensor gram. […]
For orientation: SPR reads the build-up and loss of mass on a sensor chip optically.

T1 sequence (P00698 19-147 limits assumed): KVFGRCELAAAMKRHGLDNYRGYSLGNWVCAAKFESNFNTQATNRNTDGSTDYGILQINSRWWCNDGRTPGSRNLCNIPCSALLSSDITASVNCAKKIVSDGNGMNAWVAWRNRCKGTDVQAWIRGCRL

B1: 1ZVH (VHH, SEQ ID NO: 38) produced by Bacillus subtilis Dpr9ΔsigF (VHH)
VHH: QVQLVESGGGLVQPGGSLRLSCAASGFTFSNDAMTWVRQAPGKALEWVSSITLLGGGIPYYSDTVKGRFTISRDNTKNMLYLQMNSLKPEDTAVYYCAKGFKSDYPRGQGTQVTVSS
notes: Secreted by Dpr9ΔsigF and purified on Ni-NTA agarose; also called the VHH (1ZVH); purified VHH
As to B1, the binding result was “binds”.
